Experimental data: patent US20250090523A1, “PHARMACEUTICAL COMPOSITION OR DRUG KIT FOR ALLEVIATING OR TREATING FIBROTIC DISEASES, AND USE THEREOF” (SHANGHAI SYNVIDA BIOTECHNOLOGY CO. LTD., priority 2021, published 2025)

B1: LF16: anti-human Pear1 monoclonal antibody; VH SEQ ID NO: 5, VL SEQ ID NO: 20 (antibody, V domains shown)
VH: EVQLQQSGPELVKPGASMKISCKASGYAFTGYTMNWVKQSHGKNLDWIGVINGYNGGTSYNQKFKGKATLTVDKSSSTAYMELLSLTSEDSAIYYCARGGPTTGFVYWGQGTLVTVSA
VL: DIQMTQTSSSFSVSLGDRVTITCKASEDIYNRLAWYQQKPGNAPRLLISGATSLETGVPSRFSGSGSGKDYTLSITSLQTEDVATYYCQQYWSTPTFGAGTKLELK
B2: LF11: anti-human Pear1 monoclonal antibody; VH SEQ ID NO: 2, VL SEQ ID NO: 18 (antibody, V domains shown)
VH: EVQLQQSGPELVKPGASMKISCKASGYSFTGYPMNWVKQTHGKNLEWIGLINPYNGGTSYNQKFKGKATLTVDKSSSTAYMELLSLTSDESAVYYCARGGVRPFDFWGQGTLVTVSA
VL: DIVITQSPAIMSASPGEKVTMTCSARSSVSYMYWYQQKPGSSPRLLIYDTSKLASGVPVRFSGSGSGTSYSLTISRMEAEDAATYFCQQWSSYPPTFGGGTKLEIK
B3: LF15: anti-human Pear1 monoclonal antibody; VH SEQ ID NO: 4, VL SEQ ID NO: 19 (antibody, V domains shown)
VH: EVQLQQSGPELVKPGASMKISCKASGYSFTGYTMNWVKQSHGENLEWIGVINPYNGGTSYNQKFKGKATLTVDKSFSTAYMEILSLTSEDSAVYYCSRGGGNSWFAYWGQGTLVTVSA
VL: DIQMTQTSSYLSVSLGGRVTITCKASDHINNWLAWYQQKPGNAPRLLISGATSLETGVPSRFSGSGSGTDYSLTITSLQTEDVATYYCQQYWSIPTFGGGTRLEIK

Test system: IPF fibroblasts
Test: qPCR of extracellular matrix genes collagen 7a1 and matrix metalloproteinase inhibitor 1 in TGFβ-induced IPF fibroblasts
Format: cell-based, human
Details: Example 3, FIG. 4-6, TGFβ-induced IPF fibroblasts treated 48 hours, 18sRNA reference
From the text: IPF fibroblasts of patients were purchased from the ATCC cell library.
IPF fibroblasts in Method 2 were collected. Total mRNA was extracted by Trizol method (Invitrogen, Carlsbad, CA) according to standard protocols. Complementary DNA was synthesized using reverse transcriptase (Takara). ABI7000 Real-time PCR instrument (Life Technologies) was used to detect gene expression and the PCR primer sequences are shown in Table 1. The 18sRNA gene was used as an internal reference.
Experimental groups including anti-Pear1 antibodies LF11, LF15, LF16 used alone, and their combinations with pirfenidone or nintedanib respectively, and experimental groups including pirfenidone or nintedanib used alone and a control group were established. TGFβ-induced IPF fibroblasts were treated for 48 hours, and then cells were collected. The qPCR method was used to detect the effect on the synthesis of extracellular matrix proteins collagen 7a1 and matrix metalloproteinase inhibitor 1 (primers are shown in Table 1).

Molecule | inhibition of expression of extracellular matrix proteins (collagen 7a1, matrix metalloproteinase inhibitor 1) in IPF fibroblasts
COC(=O)c1ccc2c(c1)NC(=O)/C2=C(\Nc1ccc(N(C)C(=O)CN2CCN(C)CC2)cc1)c1ccccc1 [nintedanib, reference compound] | inhibit the expression of extracellular matrix proteins in IPF fibroblasts to some extent
Cc1ccc(=O)n(-c2ccccc2)c1 [pirfenidone, reference compound] | inhibit the expression of extracellular matrix proteins in IPF fibroblasts to some extent
B1 | inhibit the expression of extracellular matrix proteins in IPF fibroblasts to some extent
B2 | inhibit the expression of extracellular matrix proteins in IPF fibroblasts to some extent
B3 | inhibit the expression of extracellular matrix proteins in IPF fibroblasts to some extent
